B1: TRIM9 (parent)
chain: CVQCKMPVCYQCLEEGKHSSHEVK

Variants of: B1
Test: protein stability index of a GFP-peptide fusion (GPS, HEK-293T) (PSI 1-6); higher = more stable
Settings: c terminus: a fixed tail appended
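Note: lentivirally expressed fusions sorted by FACS into six bins by GFP to DsRed ratio, PSI derived from sequencing read proportions per bin multiplied by bin number.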

First: CVQCKMPVCYQCYEEGKHSSHEVK [L13Y]
Second: CVQCKMPVCYQCLEEGKHSSHLVK [E22L]
The protein stability index of the first is lower: 3.48 for the first, 3.74 for the second.

KVQCKMPVCYQCLEEGKHSSHEVK [C1K] and CVQCKMPVCYQCLELGKHSSHEVK [E15L] are the same in protein stability index: 3.65 for the first, 3.65 for the second.

Compared with CVQCKMPPCYQCLEEGKHSSHEVK [V8P], CVQYKMPVCYQCLEEGKHSSHEVK [C4Y] is higher in protein stability index: 3.61 for the first, 3.86 for the second.

First: CVQCKMPVCYTCLEEGKHSSHEVK [Q11T]
Second: CVQCKMPVCYQCLEEGKHSSHKVK [E22K]
The protein stability index of the first is lower: 4.12 for the first, 4.31 for the second.

Going from CVQCKMPVCYQILEEGKHSSHEVK [C12I] to CVQCKMPVCYQCLEEGKHSSHEVQ [K24Q], the protein stability index rises from 2.28 to 3.96.

Going from CVQNKMPVCYQCLEEGKHSSHEVK [C4N] to CVQCKMPVCYQCLEEGKHSSHEQK [V23Q], the protein stability index rises from 3.3 to 3.85.

First: CVCCKMPVCYQCLEEGKHSSHEVK [Q3C]
Second: CVQCKMPVCYQCLEEGKHSSHETK [V23T]
The protein stability index of the first is higher: 3.99 for the first, 3.84 for the second.

Compared with CVQCKMPVCYQCLEEGKHSSHEVY [K24Y], CVQCKMPVCYQCLEEGKHSSHEHK [V23H] is lower in protein stability index: 3.41 for the first, 3.32 for the second.

Compared with CVPCKMPVCYQCLEEGKHSSHEVK [Q3P], CVQCKMPVCYQCLEEHKHSSHEVK [G16H] is higher in protein stability index: 2.94 for the first, 3.36 for the second.

First: CVQCKMPVCYQCLEEGKHSSQEVK [H21Q]
Second: CVQCKMPVCYNCLEEGKHSSHEVK [Q11N]
The protein stability index of the first is lower: 4.16 for the first, 4.27 for the second.

Compared with CVQCKMPVCYQCLYEGKHSSHEVK [E14Y], CVQCKMLVCYQCLEEGKHSSHEVK [P7L] is higher in protein stability index: 3.15 for the first, 3.28 for the second.

Compared with NVQCKMPVCYQCLEEGKHSSHEVK [C1N], CVQCKMPVCYQCLEEGKHFSHEVK [S19F] is higher in protein stability index: 2.79 for the first, 3.37 for the second.

Going from CVQCKMNVCYQCLEEGKHSSHEVK [P7N] to CVRCKMPVCYQCLEEGKHSSHEVK [Q3R], the protein stability index rises from 4.14 to 4.22.

First: CVQCKMPVCSQCLEEGKHSSHEVK [Y10S]
Second: CVQCKMPVCYQCLEEGKHSSHELK [V23L]
The protein stability index of the first is higher: 3.97 for the first, 3.16 for the second.

Compared with CVQCKMPVCYQCLEEGEHSSHEVK [K17E], CVQCKMPVCYQCLEEGKHSSHECK [V23C] is higher in protein stability index: 3.89 for the first, 4.65 for the second.

First: CVQCKMPVGYQCLEEGKHSSHEVK [C9G]
Second: CVQCKGPVCYQCLEEGKHSSHEVK [M6G]
The protein stability index of the first is lower: 4.47 for the first, 4.93 for the second.

Compared with CVQCKMPVCYQCLEEDKHSSHEVK [G16D], CVQEKMPVCYQCLEEGKHSSHEVK [C4E] is lower in protein stability index: 4.58 for the first, 3.38 for the second.

Going from CVQCKMPVCYQCLEEGKHSSHEYK [V23Y] to CVSCKMPVCYQCLEEGKHSSHEVK [Q3S], the protein stability index rises from 3.46 to 4.12.

Compared with CVQCKMPVCYQCLEEGKHTSHEVK [S19T], CVQCKMPVCYQCLEYGKHSSHEVK [E15Y] is lower in protein stability index: 4.25 for the first, 3.36 for the second.

First: CIQCKMPVCYQCLEEGKHSSHEVK [V2I]
Second: CVACKMPVCYQCLEEGKHSSHEVK [Q3A]
The protein stability index of the first is higher: 4.02 for the first, 2.96 for the second.

Going from CVQCKMPVCYVCLEEGKHSSHEVK [Q11V] to CVQCKMPVCYQCLEEGKHCSHEVK [S19C], the protein stability index rises from 3.27 to 3.85.

First: CVQCKMPACYQCLEEGKHSSHEVK [V8A]
Second: CGQCKMPVCYQCLEEGKHSSHEVK [V2G]
The protein stability index of the first is higher: 4.13 for the first, 3.6 for the second.

First: CVQCHMPVCYQCLEEGKHSSHEVK [K5H]
Second: CVQCKMPVCYQCLEEGKHNSHEVK [S19N]
The protein stability index of the first is lower: 3.8 for the first, 4.38 for the second.

Compared with CVQCKMPVCYQCLEEGKHSSHEWK [V23W], CVQCKMPVCYQCLEEGKASSHEVK [H18A] is higher in protein stability index: 3.38 for the first, 4.04 for the second.

Compared with CVQCKMPVCYQCLEEGKHSSSEVK [H21S], CVQCKMGVCYQCLEEGKHSSHEVK [P7G] is higher in protein stability index: 3.54 for the first, 4.59 for the second.

Going from CVQCKMPVCYQCLEEGKHSSHEFK [V23F] to CVQCKMPVCYQCMEEGKHSSHEVK [L13M], the protein stability index rises from 3.65 to 4.21.

Compared with CVQCKMCVCYQCLEEGKHSSHEVK [P7C], CVQCKMPVCYQCLHEGKHSSHEVK [E14H] is lower in protein stability index: 4.06 for the first, 3.34 for the second.

First: CVQCKMPVCYQCLPEGKHSSHEVK [E14P]
Second: CVQCKMPVCYICLEEGKHSSHEVK [Q11I]
The protein stability index of the first is higher: 3.75 for the first, 3.4 for the second.

Going from CVQCKMPVCYQCLEENKHSSHEVK [G16N] to CVQCKMPVCYQCLIEGKHSSHEVK [E14I], the protein stability index falls from 4.09 to 3.55.

Going from CVQCKMPVCYQCQEEGKHSSHEVK [L13Q] to CVQCKMPVCYDCLEEGKHSSHEVK [Q11D], the protein stability index falls from 4.48 to 4.05.

Going from CVQCKMPVCYRCLEEGKHSSHEVK [Q11R] to CVQCKMPVCYQCLEEGKHSSTEVK [H21T], the protein stability index rises from 3.77 to 4.47.

Compared with CVQCKLPVCYQCLEEGKHSSHEVK [M6L], CVQKKMPVCYQCLEEGKHSSHEVK [C4K] is higher in protein stability index: 3.99 for the first, 4.13 for the second.

Going from DVQCKMPVCYQCLEEGKHSSHEVK [C1D] to CVQCKMPTCYQCLEEGKHSSHEVK [V8T], the protein stability index rises from 3.77 to 3.79.

Compared with CTQCKMPVCYQCLEEGKHSSHEVK [V2T], CVQCKMPVCYQCLEEGKPSSHEVK [H18P] is lower in protein stability index: 3.85 for the first, 3.28 for the second.

Going from CVQCKMPVCYQCLEEGKHRSHEVK [S19R] to CVQCKMPVCYQLLEEGKHSSHEVK [C12L], the protein stability index falls from 3.73 to 3.48.

Compared with CVQCKMPVCYQCLEEFKHSSHEVK [G16F], CVQCKMPVCYQCLEEGKHSIHEVK [S20I] is lower in protein stability index: 3.73 for the first, 2.9 for the second.

Compared with CVQCKMPVCYQCLEFGKHSSHEVK [E15F], CVQCKMPVCYQCLEEGKWSSHEVK [H18W] is higher in protein stability index: 2.82 for the first, 3.04 for the second.

Going from CVQCKMPVLYQCLEEGKHSSHEVK [C9L] to CVQCKMPVFYQCLEEGKHSSHEVK [C9F], the protein stability index falls from 3.28 to 2.59.

Going from CVQCKMPYCYQCLEEGKHSSHEVK [V8Y] to CVQCKMPVCYQCNEEGKHSSHEVK [L13N], the protein stability index rises from 3.01 to 3.46.

Compared with CVQQKMPVCYQCLEEGKHSSHEVK [C4Q], CVQCKMPVYYQCLEEGKHSSHEVK [C9Y] is lower in protein stability index: 3.39 for the first, 2.8 for the second.

Going from CVQCKMPVCYQCLEQGKHSSHEVK [E15Q] to CVQCKMPVCYQCLEEGKHSSHYVK [E22Y], the protein stability index falls from 3.76 to 3.28.

Compared with CVQCKMPVCYQCLEEGKGSSHEVK [H18G], CVQCKMPVCYQCLQEGKHSSHEVK [E14Q] is higher in protein stability index: 3.63 for the first, 4.17 for the second.

First: CVQCKMPVDYQCLEEGKHSSHEVK [C9D]
Second: CVQCKMPVCYQCLEEGKHSSHSVK [E22S]
The protein stability index of the first is higher: 4.45 for the first, 3.68 for the second.

Going from CVQCKMPVCYQWLEEGKHSSHEVK [C12W] to CVECKMPVCYQCLEEGKHSSHEVK [Q3E], the protein stability index rises from 2.92 to 3.82.

Compared with CVQCKMPVCYQCLEEGNHSSHEVK [K17N], CVQCKMPVCYQCSEEGKHSSHEVK [L13S] is higher in protein stability index: 3.65 for the first, 4.7 for the second.

Compared with CVQCKMPVCYQCLEEGKLSSHEVK [H18L], CVQCKMPVCYQCLEEGKHSSLEVK [H21L] is higher in protein stability index: 3.55 for the first, 3.87 for the second.

Compared with CVQCKMPVCLQCLEEGKHSSHEVK [Y10L], CVQCKMPVCYQCLEEGKHSSREVK [H21R] is lower in protein stability index: 4.61 for the first, 3.36 for the second.

Source: the supplement of paper PMC10567573
